B1: S20NS (Salp20 protein containing C-terminal V5-epitope and 6x-histidine tags) (other)
chain: SEDGLEQDSKVETTTQNLYERHYRNNSGLCGAQYRNSSHAEAVYNCTLSLLPPKVNETWEGIRHRINKSIPEFVRLMCNFSVVMPEDFYLVYMGSNGNSYSEEDEESTDTDKDSKTGSSAAVEVTEKLILKAEENCTAHITGWTTEAPTTLEPTETQFEAIS
modifications: multiple N- and O-linked glycans (insect cell expressed)
notes: Recombinant protein secreted from stably transfected High Five insect cells and purified; also called I. scapularis salivary protein 20
B2: chloramphenicol acetyl-transferase protein containing C-terminal V5-epitope and 6x-histidine tags (CAT) (enzyme)
chain: MEKKITGYTTVDISQWHRKEHFEAFQSVAQCTYNQTVQLDITAFLKTVKKNKHKFYPAFIHILARLMNAHPEFRMAMKDGELVIWDSVHPCYTVFHEQTETFSSLWSEYHDDFRQFLHIYSQDVACYGENLAYFPKGFIENMFFVSANPWVSFTSFDLNVANMDNFFAPVFTMGKYYTQGDKVLMPLAIQVHHAVCDGFHVGRMLNELQQYCDEWQGGA
notes: Negative control protein expressed from the same expression vector as S20NS in High Five cells

Experiments:
[1] = molecular target: T1, properdin (purified human complement component) (human, UniProt P27918 28-469); assay: solid-phase saturation binding ELISA, S20NS coated (10 ng/well), properdin titrated
T1 construct: Bought purified protein; also called fP

[2] = molecular target: T1, properdin (purified human complement …); assay: ELISA, coated CAT, properdin in solution, detected with goat α-properdin Ab

T1 sequence (P27918 28-469 limits assumed): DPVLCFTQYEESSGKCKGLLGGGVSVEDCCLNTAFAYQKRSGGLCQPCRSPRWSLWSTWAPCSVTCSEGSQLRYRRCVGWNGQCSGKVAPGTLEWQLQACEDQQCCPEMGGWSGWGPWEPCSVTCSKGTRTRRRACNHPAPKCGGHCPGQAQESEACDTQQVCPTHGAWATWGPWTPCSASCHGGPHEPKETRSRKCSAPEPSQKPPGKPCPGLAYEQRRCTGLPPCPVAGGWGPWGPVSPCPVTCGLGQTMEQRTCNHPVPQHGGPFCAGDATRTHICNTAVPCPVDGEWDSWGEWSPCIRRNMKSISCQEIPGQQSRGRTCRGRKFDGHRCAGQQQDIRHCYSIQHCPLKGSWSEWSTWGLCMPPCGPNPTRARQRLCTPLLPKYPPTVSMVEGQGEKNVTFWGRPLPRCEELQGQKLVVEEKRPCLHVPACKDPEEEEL

Binder | Kd [1] | binding result [2]
B1 | 0.669 nM | –
B2 | – | no binding

Reference: patent publication US20110014218A1 (UNIVERSITY OF NORTH CAROLINA AT CHAPEL HILL, published 2011)
